Experimental data as given in the DeepSol protein solubility set.

Test: soluble on expression in E. coli; label from the status in PepcDB or PDB records

Sequence | soluble on expression in E. coli
SQTLRIGYVSSLLYGLLPEIIYLFRQQNPEIHIELIECGTKDQINALKQGKIDLGFGRLKITDPAIRHIVLHKEQLKLAIHKHHHLNQFAATGVHLSQIIDEPMLLYPVSQKPNFATFIQSLFTELGLVPSKLTEIREIQLALGLVAAGEGVCIVPASAMDIGVKNLLYIPILDDDAYSPISLAVRNMDHSNYIPKILACVQEVFATHHIRPLIESILEHHHHHH | soluble
MRGGSSLDSFPGKGTLHTLEIENFKSYKGKHTIGPFTRFTAIIGPNGSGKSNLMDAISFVLGEKPSSLRVRKYADLIHGAPINKPVAKKCRVTMNYKYSDGKVKAFTRGVNNGTSEHLLDGQTVTSAAYSQEMESINIFIKARNFLVYQGAIENIAMKTPKERTQLFEELSRSHEFQAEYERLKVEMTKAEDDTQHNMNKRRGIAQEKREAKMEKDEAEKYQTMKNELAAKSTMLFLHQLFHCERTIDESKEEINAQKKTIASLEATRSKEEAKIAAVHQEHRKALREVQKMTRKLDQKETDLAEKQQNMLTLKVSVAHEHKKLEIAKKMLAAAESKAENNSTQLADLKKSKKELEKKKAAYEAEIQDMMQRGELNLSDEQVREYGQLKDQAQRESAMVQRELLMAEQVFEGDKSSLNHELRRQKEHQERVKAKEGDVRRIETQIATLAQRIKETEEETKILKADLKKIENDVVIDKSAAAEYNKELVAVVRQLSEASGDSAEGERNQRRTEALEGLKKNFPESVYGRLVDLCQPSHKRFNIATTKILQKHMNSIVCDTEETAAKAIVYLKDHRYPPETFLPNDALVVNPLNEKLREIKKPAGVKLVFDVINPQHQAARKALQFVCGNALVCESQEDAKQLAYGGGELKDRFKAVSMDGTLFQQSGVMSGGSADLRQKSKKWDEKVVKQLREKRNQLNEKIADLQKHRRRELEVESVRSKINGNEQRLAMMKRDLKNMREMQLERLQNELEGMTAEMNMLPPRISNCQEKLERSESTLKSLQTKSNEVADRIFADFCTRVGIASIRDYENREMRIKQEMEDKLRSFDDDIQKLAYEIDFVTEQDGNRKVEVEKEKVSQIDRQYKDMKKKEKTAAAALKEHTESMEQDKEVLEEKKALSHKLETEWNEVKKIAQVAMKDFTKAEKELLRLESLLTKKQYERHSLLHSVKLGQIALPLKSGSMADVEYEEDDGDIYFIIFVSLFPFKFQLISDDTASQSSQSATDGPSVSEEQIQREQHIKINYDSLPREYKDVDDDDGVRQMSNRLNVEIDELQKNVSKMNAPNLKANQRMAEVKEREAESTEELENARKKAKRIRQQFEKVKTDRYRRFQDFFDPVANTIDDIYKQLSRNTSAQAFLGADNMEEPYLDGIQYNCVAPGKRFRPMDNLSGGEKTIAALALLFAVHGRNPAPFFVLDEIDAALDNTNIGKVASYICESAREHMQIIVISLKEEFYNKADSLIGIFPYPAACTTSGVLTFDLTRFKQIGLNEMTENPPTPSIAT | not soluble
MPTAADNHWSMPPNPEKALMLAQRAVAVFVYDAVRLEGINFTLPEVQTLLQGVTVGGHRLSDQQIAVNQGEAWKLLFQMIRDGRFELTPDCAMALHGVAAKEEALEWGCFRSGSVLIAGTEYEPPAASELPTRFDRMIDELQHMDDVHDQAVHLFLTMARCQFFYDVNKRMGRFMMNGHLLSNGYPAINIPASSQLEFNELMLRFYDSGDQREMNAFVRSCMDERVVLIMKEELEHHHHHH | soluble
GSCKLPVKKATVVYQGERVKIQEKFKNGMLHGDKVSFFCKNKEKKCSYTEDAQCIDGTIEVPKCFKEHSSLAFWKTDASDVKPCA | soluble
MAHHHHHHMELEEFWLTDGSISDWGEVKKFCGFANTLRTIYVERNPIEQDKRYRDKVYMNLPFVTQIDSWPVVNKDNLEGDRLIQRRAS | soluble
MKTYHLNNDIIVTQEQLDHWNEQLIKLETPQEIIAWSIVTFPHLFQTTAFGLTGLVTIDMLSKLSEKYYMPELLFIDTLHHFPQTLTLKNEIEKKYYQPKNQTIHVYKPDGCESEADFASKYGDFLWEKDDDKYDYLAKVEPAHRAYKELHISAVFTGRRKSQGSARSQLSIIEIDELNGILKINPLINWTFEQVKQYIDANNVPYNELLDLGYRSIGDYHSTQPVKEGEDERAGRWKGKAKTECGIHEASRFAQFLKQDA | soluble
SLSSLDAVLSQDLIVADGPAVEVGDSLEVAYTGWLFQNHVLGQVFDSTANKDKLLRLKLGSGKVIKGWEDGMLGMKKGGKRLLIVPPACAVGSEGVIGWTQATDSILVFEVEVRRVKFAR | soluble
MTFLDKIKQGCLDGWAKYKILPSLTAAQAILESGWGKHAPHNALFGIKADASWTGKSFNTKTQEEYQAGVITDIVDRFRAYDSWDESIADHGQFLVDNPRYQSVIGEADYKKACHAIKDAGYATASGYAELLIQIIEENNLQKWDKEAIVRKEKQMINSQCREVIEFFINLANAGMGVDKDSFAGWQCADVPCYAAKHWFDVDLWGNAIDLLDSAAAVGWEVHRMPTDANPLTGAFFVQSVPYHQFGHTGIVIEDSDGYTMRTVEQNIDGNPDALYVGAPARFNTRDFTGVIGWFYPPYQGDTVTQPVSTEPQTSETIVETAKTGTFTLDVAEINIRRWPSLASEVVGSYKQGDTVSFDNEGYANGYYWISYVGGSGMRNYLGIGQTDKDGNRISLWGKLNLEHHHHHH | soluble
MQKISRIVNSIYLTAELTAGTANTYDLIAEFFNFGPDSYNKLQSIDMKELKSGLEEIVSIHSELTYTDIDKRAEQRFRHLIEIRKEVEGVGSLEDIKDAQANYKSELETFKKTTFDTAGIEEFQNAVKNFIGAAADVEKYSNLEKLTDVDIMYARPLIYTLKTSIENLAKSYSSINSFDDFEKIRNPSEFVDPISKIVSGYKKYNASRTTIERDGNFAKGMQSNANNMKRLENVASVFEGLGSFVKNLQAVIDVRQTMHLPKYTVGFIDGTFDPKKVVTDLEDDWVQSVTHEMDLNRTINLLLPIGDHVSAIEASFLSSSSKQSKFFTGFKSSETEVSPVDGSIDSIISTSKKVSECIIAPLTYLESIKEVEILLQAIESLKKTVDTLVGTKELVNWVKTNDVVLKEVEALCSYTDEEKKDFESSVPIKLKGLKSSENYTSLIKTLNQSSLFADAVFSEKLSTTGQETAYILGGLQSLDAFYNSATDHIAFFDCLLNVAYYDLIPLAIDTLNKVRKMDVQPIRDGIDVVNDLFNVSNQLDELKTKLRELNDPNFSIAETPLSNPSLHTTTIGLSVRGVIRMKDEIDHRSDFDVVIENAEMVDQEMKNTGKKAINMVEFGSRLKKLKSELEGWKSNITVGGAHRIRRSTPSLADYAHIFQNALKVGGVDDDLKKLMDAVKDFEKTGKDAATKVKLKEVIASLNSLNSIGLQLSSFATPFTAIGQSFSALDAFFVSNGKIITTPAPIVSSSDIRSPTIEDATALVSFLYKLLNDFMKEEGDKGATNNGKLPLKAMYQFCKSILRIANLAPNNAIVESEKYSEQDRYSDVLCGMDNRILIDEDVCRRCYFKDQYINANYLELPNGNRMILTQAPMSRTEHFKPEKDKKRKNLYSLSDEEEEISYLVQTVDKFYQTIVQTGTEVVAMLCDFNEEGVEKCSSYFPLEKDGKQKFHNVNVCTTNVQHPSADVVLRTLVITSYLGEKKKTHTVKHYSYKGWIEKNAPELPREILNIFRVARNSKSLVVHCSNGIGRSAAFVSWELCYHFVPVNFEICDFSVAEFVYQKMIRSLDTTSTVNLDFLSLLTELRHSRPRAIHTPMQLAFSIMMVLDFVMNNFPKGEMEAKYQEIRKSYLHARQMMHKDLEFDGSDGKTVDIALDEDGHGIPEKKGKKKTNKKAAQQASVKKDEKSKKKSKKDSKKGSKMDMKTAEEGMKSLQKKAA | not soluble
MPLMRAIGVIRKSRGERWSREEFEELLRSAGYEILAIVEQVREEHPRYNIGPGKLEEVKKLVKELKPDKVIFANRLTPSQAYNLWKELRVDIIDKWQLVLEIFEKRAHSKEAKLQVELANLQYELPLVKEAIRRIKMGDRAGFKGMGEYQVHQYLKHIKYRMGRIKGELEKIRAEREIRRKKREEEGFVLIALAGYTNAGKSTLLNALTGEDIEAKNQMFTTLDTTTRRFKVKGKMLLVTDTVGFIDGLPPFIVEAFHSTLEEIVKADIIILVLDASEPWKEIRRKLFASLNVLRELKALDRPMIVALNKVDLISDEDAKEKELLVRETIDGRANTVGVARISAKLNQLEELYNLIEVALSRLPKFQTFEIRVKDPSKLGKVLSMVHSMGDLLEVEYSEETKIKAYIQTGLIRELTKLGVSLKRISLEHHHHHH | not soluble
GAMGSPKEHIDLYQQIKWNGWGDTRKFLHQLKPSGTIAMTTPEVSSVPLPSLRGFIKKELTLPGEEDKPFVLDETPALQIENIHVDPPKQYPEFVRELKAFFLPDQLKDDKLARITHTFGKSLRDLIRVRIGQVKNAPDLIVLPHSHEEVERLVQLAHKYNVVIIPMGGGSNIVGAIEPVSNERFTVSIDMRRMNKVLWVDRREMTACIQVGIMGPELEKQLHKQGVSLGHDPDSFEFSTLGGWLATCSSGHQSDKYGDIEDMAVSFRTVTPTGTLELRNGARSGAGINYKHIILGSEGTLGIITEAVMKVHAVPQAVEYYGFLFPTFAHAVSALQQIRSSEVIPTMIRVYDPEETQLSFAWKPSKGAVSEFTSAMVKKYLHYIRSFDFKNVCLSIIGFEGPKKVVDFHRTSVFDILSKNAAFGLGSAPGKTWAEKRYDLPYIRDFLLDHNMWVDVAETTVSYANLQTLWKDAKQTFVKHFKDQGIPAWICAHISHTYTNGVCLYFIFASKQNENKDMAQYIEAKKLMTDIIFKYGGSLSHHHGVGYEHVPWMTRYATRGWINVYRSLKETIDPKDICNPRKLI | soluble
MINFDNFKKYQESFGYMAQQLCFPEKLTFHPKTFEETISKDHPAYEDLVAFRNVMMTFSLSEIKAIYTDTFDFTKKAPLYMTYNKFDTQKERGQMLAKLKVLYEMFGLEMVDNELSDYLPLMLQFLQVAEWRNDPRAEENIQLIIMIIEDGTYVMANALGEDNNPYAYVIQALRKTLKLCLTSPKGVKHHA | not soluble
MSTIHEFPKNYERFIAQGEEALVEHNQIAALENFQQAYQLQQTPPVNQKIVQLLLEMGEADEALALAEAFQESYFENLETAAIYMQIYSQSRRFIEGYILLKQLLQTKKITLAQQKTLEQQLMQVEEAYQQLETQQIQAIKRNLLVSDQLPVYQQLANIKTSLYLPKPVFVEVAKDLVMNQALSYFAREWFIEELALLQFSEPLTFLWYDNQPQTVLLEGKTGPLNTPIYSEICTELRNRLENDDPIMLQHLEEEIRLHLAYLYPLAETVISDPTIWVLGYLATYYPEYIEKELTEAKGHQIDAVQKVQQAIRTAFTQIML | soluble
MNNNTLSDDNLYNIENWGEGYFRINSKGNIEISKKPGKPGVELQTIVDAADRAGLHLPLLIRCSDILHDRVHRIYQAFTQAREDTCYAGNYQLVYPIKVNQEQSVVRELLKSPDNQIGLEAGSKPELMAVIGMLGDHQSTIVCNGYKDTSYIRTALIAQQMGHKVFIVIEKKSELDIILKESARLQIKPTLGVRIRLVSKSAGKWENTGGVKSKFGLNAKQVLELILQLKANDMLDCLQLMHCHLGSQIANIHDIRHCMQEVARYYIELRQLNAPIGTIDVGGGLSVDYEGTRSNKGCSMNYSLVEYATHIMLALKHLCQEAEISEPDLISESGRALTAHHAVLISNITDVEIINKAPVLPEISEDDSHVIRDIYDTYQAITDSSPTEIYNYAAHSLNEAHSLFKHGVISLQEKAKVEAFYTNICMEIKDKLDEENPSEKALLMRINECMAAKIFCNISFFQSIPDAWAIGQIFPVAPISQLNRTLSMHSILQDLTCDSDGTIKQYPGSSCVTTTLMLPSYDINNPYNIGFFLVGAYQEILGNLHNLFGDTNSLDVKLSDDGQFELDDLVSGDTVTNVLNLAHFDTKKLIQSYEKQLIKSELPKEKALSYLNELRSIFSQLTYLDGNIAQLEHHHHHH | soluble
MASLFTQEIHLSKRHEEILSQRLMLLQKMKNKFGDENTERASLLQATETASRRNLRLLKDIDAAEEAFQTKLIPHPQPSMLSLETRYWASVEEHIPKWELFLLGRAPYPIGAENQNEVPFVQTEATL | soluble
